This is an account of results in the DeepSol protein solubility set.

A short description of the data set: soluble on expression in E. coli; label from the status in PepcDB or PDB records.
For the sequence “MAHHHHHHMSLYQRKTILAPMVRVGNVGFRVFCAAQGADVVFTEEIVAAKLARCHREVRVHNDAAGPMIEFVAYELFKNQYKRSVVFTTPARDMANQSGEGAPVVLQLGVSDAAVGVAAALLCCEDVDGIDVNMGCPKKFSVDNGMGAALMRDTSKAASILFALDDALNAPDKLAARGRRVPLSFKIRLLETAEATADMLISIMEKVGANRVHAITLHARTVNQVAEDSPHYDRAAEAVRRLRSHPLFKEMCFVLNGSVRSRDDGAVKMAQFGFDAIMIARHAMWDMSVFSRHVSSAGGRSSLTSEDAEAPLASTSWMDLYRSLLRTHAKYCTPFTYVKYHLTRSIPCIPALRHLMTAVQQEATCYEDLAKIFSLPLEEQESMRGVAAVEMVACVPNREVTLGVVSSNAIKHNDAARSGRVRSEKSAATPAAKKPRGE”, the “soluble on expression in E. coli” value is recorded as “soluble”.

As for “MSKIFEDNSLTIGHTPLVRLNRIGNGRILAKVESRNPSFSVKCRIGANMIWDAEKRGVLKPGVELVEPTSGNTGIALAYVAAARGYKLTLTMPETMSIERRKLLKALGANLVLTEGAKGMKGAIQKAEEIVASNPEKYLLLQQFSNPANPEIHEKTTGPEIWEDTDGQVDVFIAGVGTGGTLTGVSRYIKGTKGKTDLISVAVEPTDSPVIAQALAGEEIKPGPHKIQGIGAGFIPANLDLKLVDKVIGITNEEAISTARRLMEEEGILAGISSGAAVAAALKLQEDESFTNKNIVVILPSSGERYLSTALFADLFTEKELQQ”, the “soluble on expression in E. coli” value was “soluble”.

As for “EKKYFEIHGVPSIIWGNPSSKLYIYIHGQCGNKEEAEAFANIAVPHECQVLSVDLPEHGERKREKNSFNPWHVVPELVSIMEYAKCHWNQISLYANSIGAWFSMLSFEKENLRECIFVSPILDMQQLISNMMLWANVSEEQLKHELIIPTSFGHTLSWEYLQYVKQHPITQWNVPTKILYGKHDELTEIGVVEKFVEKFNCNLTIIENGKHWFNTPQELNSLYEWLNTLVK”, the “soluble on expression in E. coli” value is on record as “not soluble”.

For “FNKIKDSVKQKIDSMGDKGTYGVSASHPLAVEEGMKVLKNGGSAVDAAIVVSYVLGVVELHASGIGGGGGMLIISKDKETFIDYRETTPYFTGNQKPHIGVPGFVAGMEYIHDNYGSLPMGELLQPAINYAEKGFKVDDSLTMRLDLAKPRIYSDKLSIFYPNGEPIETGETLIQTDLARTLKKIQKEGAKGFYEGGVARAISKTAKISLEDIKGYKVEVRKPVKGNYMGYDVYTAPPPFSGVTLLQMLKLAEKKEVYKDVDHTATYMSKMEEISRIAYQDRKKNLGDPNYVNMDPNKMVSDKYISTMKNENGDALSEAEHES”, the “soluble on expression in E. coli” value is on record as “soluble”.

As for “GMSSNVSHFEGTRPVADQQRFDTEALEAWMRQHVEGFAGPLSVEQFKGGQSNPTFKLVTPGQTYVMRAKPGPKSKLLPSAHAIEREYRVMDALAGTDVPVAKMYALCEDESVIGRAFYIMEFVSGRVLWDQSLPGMSPAERTAIYDEMNRVIAAMHTVDYQAIGLGDYGKPGNYFQRQIERWTKQYKLSETESIPAMDSLMDWLPQHIPQEDADLTSIVHGDYRLDNLMFHPTEPRVLAVLDWELSTLGHPMGDFGYHCMSWHIAPGQFRGIAGLDHAALGIPDEASYRKLYEQRTGRPITGDWNFYLAFSMFRIAGILQGIMKRVVDGTASSAQALDAGKRARPMAEMGWEYAKKAKQ”, the “soluble on expression in E. coli” value is “soluble”.

As to “MSEFTQDTVQKPIDELVTWVKQYDFSLNLPTERLAFLLAIAVLSNERFDEELGEGELHDAFAIVTRLFAESGEASAFRANNAINDLVKQRLLSRFTSEMTEGASIYRLTPLAIGITDYYVRHREFSKLKLSIQLSMVADEMAKAVESAQQGGSVAHWRKNVFGVLKYSVSEIFDRIDLNQRVMDEQQQSVKEQIADLLNKDWRDAINNCEALLSETSATLRELQDTLQAAGDELQTQILDIQECVYGDLELDFIEETLSALQMKLDRITSWGQQSIDLWIGYDRHVHKFIRTAIDMDQNRAFSQRLRQSMNDYFEQPWYLTYADAERLSDLRDETLTLRDEEVTGHVPTEVEYEELQQVNDELAQRIGDMLKVHKEQGAAIDLALVLRDYLASHPRTHHFDLARMVVDQAVRLGYSESDYRAIQPDWTAINDFGAKVQANVIDRYLEHHHHHH”, the “soluble on expression in E. coli” value is recorded as “soluble”.

“MSLASAIRICTKFSRLSLNSRSTSKSLIHCMSNVTADVPPVSETKSKFLKAYKRPIPSIYNTVLQELIVQQHLMRYKKTYRYDPVFALGFVTVYDQLMEGYPSDQDRDAIFKAYIEALNEDPKQYRIDAQKMEEWARSQTSASLVDFSSKEGDIEAVLKDIAGRAGSKEGFSYSRFFAVGLFRLLELASATDPTVLDKLCASLNINKKSVDRDLDVYRNLLSKLVQANELLKEYVEREKKKQEERAQSQKANETISKCLGDTLYNPSFLVERKSEGHHHHHH”: the “soluble on expression in E. coli” value is listed as “soluble”.

In the case of “MAHHHHHHMRASTPPLYQRQPEGLAPSYNTGLPLAMPDVPTLRIPQHLSATSHAMPPTAAAQGEFVMAATAPRLGSLETSTRATNPAPFITQFPAAQAPNLHGYVSASPRTSGTGTETSASDYFRYAANLMRNTLPPPMTELAALEEEEKSLKREEEELRPQIIELERMREQLEEQTQKVAVELMQMVVLEQQYYVEPIVDYTAQIKNAEVQCVHLASRVEEAKHSLEELQRQHQSYDAVMEEKERLKKETCAVRERFATLENRRRLCMLQSEALFDVESRRGEEAASQAEETENQLMEMRNNEPLLGIKRSRRSSRSMSRGVSFAQKSIVLDTGSDGDDDGYARSTRHTGDTVSGLTQRGSWNSAGAEDEESEQDCDRDDICGISGQSVRYSLNDTKRVQLVVPAV”, the “soluble on expression in E. coli” value is given as “not soluble”.

Consider “MGHHHHHHSHMYADEVDKDRRTFKKNFSSARGSGIDGKWKRDMFQTANRSPKQNFTTKRRAQTNFVTKAGAAAAGLATRNISTASIRGRTAPAVVREIHTGPSTLIIKNLATTVTQEDLEELFEQYEPELVQLHYGPTGESNGCADLIVPHAQVAIIQKALEGVLLDGEPIEVLEANPPKQVSVFDRIKKVSRGNDFKAKNMRVVVKSKGGFQKRGARGDF”, for which the “soluble on expression in E. coli” value was “soluble”.

As to “MMNWKQLISAKRFGMEEFHEERQENRSEFQRDYDRLIFSAPFRRLQNKTQVFPLPGSIFVHNRLTHSLEVSCVGRSLGNDVAKAILERQPELESSFLPEIGSIVSAACLAHDLGNPPFGHSGERAISTFFSEGKGQRLQEKQPDGEQLSPMEWEDLTHFEGNANAFRILTHQFEGRRRGGFVLTYSTLASIVKYPFSSSLAGKKSKFGFFVSEEESYRKIATELGLIQLSEQPLKYARHPLVYLVEAADDICYQMMDIEDAHKLKIITTDETKELLMAFFSEDRQSRLRSTFQIVNDINEQIAYLRSSVIGLLVRECTRVFLEHEQEILAGTFEGALIKHIAEGPAAAYNHCAEISLKRIYRSQDVLDIELAGFRIISTLLELMVDAVTLPGKEKAYSELLTNRVSDQYNIKSPVLYERIQAVLDYISGMTDVFALDLYRKINGNSLPAV”, the “soluble on expression in E. coli” value is “not soluble”.

Turning to “MNKCFLKIAIVAGEESGDLLGADLISCLSQQTGCKIDLIGVGGRHLKALGLKSFFDFQDIALIGLGTVLKKLPLLLIHIHNLSKFIAKEQPDCLIIIDSPDFTHRVAKKVHVLAPSIPIIKYIAPTVWAWRPERAKAMRKFVDHVLAVFPFEKKIMQDLGGPPTTYVGHRLLTYPPLLTIQSKKRHQSEKKHVFAKQTSSPTLVILPGSRNLEIRYLMPIFREAVEILIQRIPHLHIILPTLPHFVDEIRAFVQSWKNKVEILVDEDAKWHAFSKADVALAALGTVSLELALAKIPMVLCYKLDRFSKLFIFPKIMLWSAALPNIISDKPIVPEYFNEFLRPGMLARQIEELLYNPLLRQAQLDVFEMVEQKMKTEVPSGVIAAQTIVTLLKKRSGSLKFS”, the “soluble on expression in E. coli” value is “not soluble”.

Consider “MGDTFIRHIALLGFEKRFIPSQHYVYMFLVKWQDLSEKVVYRKFTEIYEFHKMLKEMFPIEAGEIHTENRVIPHLPAPRWFDGQRAAESRQGTLTEYFNGLMGLPVKISRCPHLLDFFKVRPDDLKLPTDSQAKKPETYLVPKDGKNNVADITGPIILQTYRAIADYEKSSGTEMTVATGDVVDVVEKSESGWWFCQMKTKRGWVPASYLEPLDSPDEAEDPDPNYAGEPYVTIKAYAAVEEDEMSLSEGEAIEVIHKLLDGWWVVRKGDITGYFPSMYLQKAGEEITQAQRQIRGRGAPPRRSTIRNAQSIHQRSRKRLSQDTYRRNSVRFLQQRRRPGRPGPLSTDGTKDNPSTPRVKPQPAVPPRPSSDLILHRCTESTKRKLTSAV”, for which the “soluble on expression in E. coli” value is “soluble”.

As to “SLTVFQPLVPPDWKMNLRDGELYAQVAFSAAPEQGFRAGGHGVLKGGSAWMPDNQVNGVDFVLPFRFADGAWHLGTRGPVTLRIAEVINLVTAKNITADLQGRYPWTEEEPLLLTDVSVDVLGGNVLMKQLRMPQHDPALLRLNNLSSSELVSAVNPKQFAMSGAFSGALPLWLNNEKWIVKDGWLANSGPMTLRLDKDTADAVVKDNMTAGSAINWLRYMEISRSSTKINLDNLGLLTMQANITGTSRVDGKSGTVNLNYHHEENIFTLWRSLRFGDNLQAWLEQ”, the “soluble on expression in E. coli” value was “not soluble”.

Consider “MTENAQDKARQAVETVVKSPELVEQILSDEYVQIMIARCFHSGPLPPPSDLAQYNDIISNGADRIMAMAEKEQAVRHETIRQDQTFNRRGQ”, for which the “soluble on expression in E. coli” value was “not soluble”.

With “MGSDKIHHHHHHMIKRLKIKNFKSYRDSEFEFEKVSIVVGPNGSGKTNLVDAFSFLKQLIRPLSYPPYPFIRWGDYKNVVFMQDENLDISFEIDGEYKGKDYHYEISLNKLQIKKEIINFDSYSMERRGNVIRYENKEMTIPDNLSVFNLFFAQPFIIAYNLNFTLPPELLNFMTNFLNDVGVFRIVPQIAVSPVHFTFPEALDENGRGLVKVISNNLSRINETKQVYDFLVENNISLRPVFTEDGNIRLHFIEKSENNKELILLPASVPDGFIKMLTIIIAVYLLKMSTIIIDEIENSLHLKYIERLVDIMRYSDSQFIATTHSPLIIDFMDPFRNNNS”, the “soluble on expression in E. coli” value is recorded as “not soluble”.

As for “MGHHHHHHSHMTNTNEAKPVNVLSAEVMITTAFQDADPMGVVYHGNYFRFFEKARHEMLEKIGYSYRDMMASGYVWPIIDTRVKYVKSIPYDHKIRVEATLTEWENRMRVDYVIYDAETNVRMTKAHTMQVAVSIETEEMCFVSPRIFTDKVEAYHNA”, the “soluble on expression in E. coli” value was “soluble”.

For the sequence “MGSSHHHHHHSSGLVPRGSHMQQLPKAIIIGVRKGGTRALLEMLNLHPAVVKASQEIHFFDNDENYGKGIEWYRKKMPFSYPQQITIEKSPAYFITEEVPERIYKMNSSIKLLIIVREPTTRAISDYTQVLEGKERKNKTYYKFEKLAIDPNTCEVNTKYKAVRTSIYTKHLERWLKYFPIEQFHVVDGDRLITEPLPELQLVEKFLNLPPRISQYNLYFNATRGFYCLRFNEIFNKCLAGSKGRIHPEVDPSVITKLRKFFHPFNQKFYQITGRTLNWP”, the “soluble on expression in E. coli” value was “soluble”.

Take “MYSLIRHGRSLVELQKWRHLRVLVQKASPLSNSFSSASAARLSPRVGRKGKSFTVSYLVDSLGLPKKLAESVSRKVSFEDKDNPDSVLNLLRSHGFTDSQISTIVTDYPQLLVADAEKSLAPKLQFLQSRGASSSELTEIVSTVPKILGKRGHKTISVFYDFIKETLLDKSSKSEKSCQPFPQGNLENKIRNLSVLRELGMPHKLLFPLLISCDVPVFGKEKFEESLKKVVEMGFDPSTSKFVEALCVVQRLSDKNIEDKVNAYKRLGFDVEYVWTVFKRWPNFLTHSEKKILNTIETFLGLGFSRDEFSVLIKRFPQGIGLSAEMVKKKTEFLVKKMNWPLKALVSNPAVLGYSLEKRTVPRGNVVQALISKGLIGSELPSISRVFVCTDQVFLNRYVKRHEDKQLETELMAIYRAS”: the “soluble on expression in E. coli” value is given as “soluble”.
